For 1 substance, percent of the core aggregate surface occupied by green (shell) particles results are on record in publication PMC5672941.

This test addresses SpyTag fused to an elastin-like polypeptide with a C-terminal cysteine. Nature of the test: core-shell assembly of protein-coated particles.

Turning to “SpyCatcher fused to an elastin-like polypeptide with a C-terminal cysteine (designed binder)”, the percent of the core aggregate surface occupied by green (shell) particles turned out to be 60%.
